The record followed here is US6849441.

Sequence of protease TCES (hyperthermostable protease derived from Thermococcus celer), enzyme preparation (Thermococcus celer) (chain, as listed by the source limits assumed): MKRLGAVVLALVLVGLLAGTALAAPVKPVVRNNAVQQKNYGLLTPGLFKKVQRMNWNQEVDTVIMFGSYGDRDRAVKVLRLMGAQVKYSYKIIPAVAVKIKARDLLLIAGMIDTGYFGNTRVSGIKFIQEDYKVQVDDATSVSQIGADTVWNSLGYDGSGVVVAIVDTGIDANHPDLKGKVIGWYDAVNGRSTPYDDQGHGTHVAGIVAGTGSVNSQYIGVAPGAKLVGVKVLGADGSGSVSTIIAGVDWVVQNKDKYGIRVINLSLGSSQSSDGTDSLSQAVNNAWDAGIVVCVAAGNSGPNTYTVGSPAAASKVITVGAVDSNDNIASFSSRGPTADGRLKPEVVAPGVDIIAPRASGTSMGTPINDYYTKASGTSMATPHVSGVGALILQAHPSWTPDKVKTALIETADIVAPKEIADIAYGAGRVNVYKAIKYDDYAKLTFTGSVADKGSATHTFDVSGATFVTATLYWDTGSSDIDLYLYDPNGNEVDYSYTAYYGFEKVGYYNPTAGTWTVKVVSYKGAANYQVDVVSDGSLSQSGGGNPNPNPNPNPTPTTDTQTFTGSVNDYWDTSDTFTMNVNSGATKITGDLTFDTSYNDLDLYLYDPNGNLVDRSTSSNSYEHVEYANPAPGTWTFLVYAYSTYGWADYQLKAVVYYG

This assay concerns the target protease TCES (hyperthermostable protease derived from Thermococcus celer), enzyme preparation (Thermococcus celer). Description: cell-based or functional assay.
As to Pepstatin (peptide), the enzyme activity compared with control without reagent, after treatment at 37° C. for 30 minutes with 1 mM reagent came out at 105%.

As for Antipain (peptide), the enzyme activity compared with control without reagent, after treatment at 37° C. for 30 minutes with 1 mM reagent amounted to 19%.

For the substance Leupeptin (peptide), the enzyme activity compared with control without reagent, after treatment at 37° C. for 30 minutes with 1 mM reagent came to 104%.

For the substance Chymostatin (peptide), the enzyme activity compared with control without reagent, after treatment at 37° C. for 30 minutes with 1 mM reagent was determined as 0%.
